Series [1] deals with SKMG, U373, and U251 glioma cell lines. Nature of the series: MTT Cell Proliferation Assay, three GBM cell lines. The series is classed as cell-based, human. The settings on record: drug concentrations between 10-100 μM. Here is the method:
Cells were plated in 96-well plates at 1000, 4000, and 2000 cells/well for SK-MG, U373, and U251 cells, respectively. Drug was added at specified concentration on day 3 after plating (at the beginning of log phase of growth).
(§1) If the Na^+ conductance seen in high-grade glioma cells was required or linked to the high rate of cell growth, inhibition of the pathway should result in inhibition of cell growth and/or cell death. […] However, benzamil is ineffective in inhibiting Na^+/H^+ exchange in glial cells (73), yet still can inhibit proliferation in this assay. […] Therefore, inhibition of the inward Na^+ current results in inhibition and/or stoppage of cell growth. These observations establish the importance of this pathway in tumor cell biology.

Series [2] relates to U87-MG and SK-MG cells. Nature of the series: [^3H]-thymidine incorporation. It is filed as cell-based, human. Conditions: same concentration range (10-100 μM).
Description: as §1
For orientation: Uptake of a labelled nucleoside into DNA is a usual measure of proliferation.

Series [3] concerns U87-MG cells. Kind of series: Transwell Migration Assay, U87-MG cells. It is filed as cell-based, human. The settings on record: concentration-dependent.
Series [4] can be described thus: Activity of tyrosine-extended PcTX1 compared with unmodified PcTX1.
The target in series [5] is T1, ASIC1+ASIC2+γ-hENaC (Homo sapiens, UniProt P51170+P78348+Q16515).
T1 construct: made in house; host or cells: Xenopus oocytes (membrane vesicles)
T1 sequence (Q16515 whole entry, one chain of several): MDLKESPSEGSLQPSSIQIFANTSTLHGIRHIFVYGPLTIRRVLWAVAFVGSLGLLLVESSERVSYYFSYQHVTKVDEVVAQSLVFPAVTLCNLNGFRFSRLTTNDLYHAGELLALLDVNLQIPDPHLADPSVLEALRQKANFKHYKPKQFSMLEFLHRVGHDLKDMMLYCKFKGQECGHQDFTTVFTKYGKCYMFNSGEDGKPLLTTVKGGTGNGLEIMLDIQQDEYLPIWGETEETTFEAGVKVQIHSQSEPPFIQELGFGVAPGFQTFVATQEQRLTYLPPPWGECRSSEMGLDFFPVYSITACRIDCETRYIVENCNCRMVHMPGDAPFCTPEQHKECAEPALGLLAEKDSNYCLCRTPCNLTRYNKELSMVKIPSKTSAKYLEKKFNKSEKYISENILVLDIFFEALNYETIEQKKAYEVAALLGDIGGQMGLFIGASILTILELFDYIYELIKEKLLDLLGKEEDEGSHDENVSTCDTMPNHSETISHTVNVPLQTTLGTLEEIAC
T1 sequence (P51170 whole entry, one chain of several): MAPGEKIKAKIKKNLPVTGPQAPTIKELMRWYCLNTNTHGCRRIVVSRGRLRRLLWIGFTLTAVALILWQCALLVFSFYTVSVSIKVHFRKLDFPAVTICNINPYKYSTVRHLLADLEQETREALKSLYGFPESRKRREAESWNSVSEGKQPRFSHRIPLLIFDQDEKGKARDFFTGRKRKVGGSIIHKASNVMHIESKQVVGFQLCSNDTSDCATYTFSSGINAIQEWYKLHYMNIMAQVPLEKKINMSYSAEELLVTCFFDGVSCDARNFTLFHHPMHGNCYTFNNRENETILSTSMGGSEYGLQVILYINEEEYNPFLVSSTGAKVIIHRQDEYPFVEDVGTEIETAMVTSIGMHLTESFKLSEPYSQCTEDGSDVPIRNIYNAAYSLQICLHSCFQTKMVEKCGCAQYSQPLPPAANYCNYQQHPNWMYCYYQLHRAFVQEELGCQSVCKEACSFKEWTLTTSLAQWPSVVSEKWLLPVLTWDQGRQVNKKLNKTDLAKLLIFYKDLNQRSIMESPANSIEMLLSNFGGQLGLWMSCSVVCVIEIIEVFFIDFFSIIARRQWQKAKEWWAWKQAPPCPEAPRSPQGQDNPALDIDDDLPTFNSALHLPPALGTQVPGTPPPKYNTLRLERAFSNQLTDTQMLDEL
Nature of the series: ASIC1+ASIC2+γ-hENaC in planar lipid bilayers. The series is classed as biochemical. The settings on record: 25 μM, cis bathing solution; γ-hENaC co-expressed with ASIC1/2. The procedure:
FIGS. 14A and B show the effect of syntaxin 1A on ASIC1+ASIC2 (FIG. 14A) and ASIC1+ASIC2+γ-hENaC (FIG. 14B) in planar lipid bilayers. The holding potential was +100 mV and records were filtered at 200 Hz.
The effect of syntaxin 1A on constitutive amiloride-sensitive inward Na^+ current activity in planar lipid bilayers was examined (FIGS. 14A and B). For these experiments, membrane vesicles were prepared from oocytes that were previously injected with cRNA encoding both ASIC1 and ASIC2±γ-hENaC. […] Syntaxin 1A was then added as a GST fusion protein to the cis (or cytoplasmic) bathing solution. […] The same results were found in oocyte expression studies (FIG. 15).

In series [6] the target is T2, ASIC1 (recombinant: in vitro translated in proteoliposomes, expressed in Xenopus oocytes, reconstituted in planar lipid bilayers) (UniProt P78348).
T2 sequence (looked up): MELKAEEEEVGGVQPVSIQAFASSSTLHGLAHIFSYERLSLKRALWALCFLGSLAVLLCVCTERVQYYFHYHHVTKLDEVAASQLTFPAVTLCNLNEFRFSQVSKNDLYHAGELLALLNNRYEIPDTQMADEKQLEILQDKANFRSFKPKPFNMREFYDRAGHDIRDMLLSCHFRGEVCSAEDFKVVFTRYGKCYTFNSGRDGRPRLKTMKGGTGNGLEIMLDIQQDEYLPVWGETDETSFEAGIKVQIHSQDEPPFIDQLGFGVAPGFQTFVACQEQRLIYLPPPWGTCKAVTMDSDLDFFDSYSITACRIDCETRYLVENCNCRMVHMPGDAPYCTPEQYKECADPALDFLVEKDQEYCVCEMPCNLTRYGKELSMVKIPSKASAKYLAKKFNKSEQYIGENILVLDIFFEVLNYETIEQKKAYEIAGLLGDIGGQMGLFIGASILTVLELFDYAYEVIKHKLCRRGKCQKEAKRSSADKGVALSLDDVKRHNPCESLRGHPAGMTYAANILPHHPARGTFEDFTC
Nature of the series: cell-based or functional assay.

The target of series [7] is T3, ASIC1 (Homo sapiens, UniProt P78348).
T3 sequence (P78348 1-528): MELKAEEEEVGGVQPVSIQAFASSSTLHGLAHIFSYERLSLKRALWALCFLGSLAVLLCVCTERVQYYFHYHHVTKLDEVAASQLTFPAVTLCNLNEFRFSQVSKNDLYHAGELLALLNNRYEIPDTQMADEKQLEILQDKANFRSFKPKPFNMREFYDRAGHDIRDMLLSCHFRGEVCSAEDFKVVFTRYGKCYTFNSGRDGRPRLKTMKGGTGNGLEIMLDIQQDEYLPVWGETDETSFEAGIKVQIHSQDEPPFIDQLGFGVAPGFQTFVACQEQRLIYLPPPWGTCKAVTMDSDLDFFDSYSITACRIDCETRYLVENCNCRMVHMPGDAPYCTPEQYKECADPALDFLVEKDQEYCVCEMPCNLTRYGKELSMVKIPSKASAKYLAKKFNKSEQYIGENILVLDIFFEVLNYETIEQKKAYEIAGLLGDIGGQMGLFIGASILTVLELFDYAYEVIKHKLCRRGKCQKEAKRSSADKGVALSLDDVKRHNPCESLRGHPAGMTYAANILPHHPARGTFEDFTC
Nature of the series: Wild-type ASIC1 in planar lipid bilayers, single channel recording. The series is classed as biochemical. The settings on record: PKC isoforms. Here is the method:
An expanded time scale is shown below each trace.
Wild-type ASIC1 incorporated into planar lipid bilayers at neutral pH or at acidic extracellular pH was also examined.
Membrane potential was held at −60 mV, and the pHo was step decreased to 4.0 for 10 s, and then returned to 7.4 for 30 s before repeating the sequence.
Control single channel were record for ASIC1 containing channels in bilayers bathed with symmetrical 100 mM NaCl, 10 mM MOPS, pH 6.2. Holding potential was +100 mV referred to the virtually grounded trans chamber. For illustration purposes, data shown were digitally filtered at 100 Hz using pCLAMP software (Axon Instruments) subsequent to acquisition of the analog signal filtered at 300 Hz with an 8-pole Bessel filter before acquisition at 1 ms per point. An expanded time scale is shown below each trace (FIG. 21).
Representative dwell-time histograms were constructed following the events analyses performed using pCLAMP software (Axon Instruments) on single channel recordings of 10 min in duration filtered at 300 Hz with an 8-pole Bessel filter before acquisition at 1 ms per point using pCLAMP software and hardware. The event detection thresholds were 50% in amplitude of transition between closed and open states, and 3 ms in duration. Closed and open time constants shown were determined by fitting the closed and open time histograms to the probability density function (Sigworth and Sine, 1987), and using the Simplex least square routine of pSTAT. Number of bins per decade in all histograms was 16.

In series [8] the target is T2, ASIC1 (recombinant: in vitro translated in proteoliposomes, expressed in Xenopus oocytes, reconstituted in planar lipid bilayers).

On to `NC(=Nc1ccccc1)NC(=O)c1nc(Cl)c(N)nc1N` [phenamil], for which the “relative rate of proliferation” value in series [1] is given as “significantly inhibited”.

Turning to `N=C(N)NC(=O)c1ncc(N)nc1N` [N-amidino-3,5-diamino-pyrazinecarboxamide], the “[^3H]-thymidine incorporation” value in series [2] is listed as “did not affect”. Besides, the Transwell migration result in series [3] was “did not”.

As to “SEQ ID NO. 2: PcTX1 with a tyrosine residue or other residue at one end to aid linking to the tag protein (EDCIPKWKGCVNRHGDCCEGLECWKRRRSFEVCVPKTPKTY; listed as Psalmopoeus cambridgei)”, in series [4], the “activity relative to unmodified PcTX1” value was “identical to the unmodified PcTX1 sequence”.

B1: syntaxin 3: syntaxin family member used as specificity control (protein, UniProt Q13277 1-289, looked up)
Syntaxin-3: MKDRLEQLKAKQLTQDDDTDAVEIAIDNTAFMDEFFSEIEETRLNIDKISEHVEEAKKLYSIILSAPIPEPKTKDDLEQLTTEIKKRANNVRNKLKSMEKHIEEDEVRSSADLRIRKSQHSVLSRKFVEVMTKYNEAQVDFRERSKGRIQRQLEITGKKTTDEELEEMLESGNPAIFTSGIIDSQISKQALSEIEGRHKDIVRLESSIKELHDMFMDIAMLVENQGEMLDNIELNVMHTVDHVEKARDETKKAVKYQSQARKKLIIIIVLVVVLLGILALIIGLSVGLN
Consider B1, for which the “inhibition of channel Po” value in series [5] is listed as “without effect”.

B2: PKCζ (enzyme, UniProt Q05513 1-592, looked up, species assumed)
Protein kinase C zeta type: MPSRTGPKMEGSGGRVRLKAHYGGDIFITSVDAATTFEELCEEVRDMCRLHQQHPLTLKWVDSEGDPCTVSSQMELEEAFRLARQCRDEGLIIHVFPSTPEQPGLPCPGEDKSIYRRGARRWRKLYRANGHLFQAKRFNRRAYCGQCSERIWGLARQGYRCINCKLLVHKRCHGLVPLTCRKHMDSVMPSQEPPVDDKNEDADLPSEETDGIAYISSSRKHDSIKDDSEDLKPVIDGMDGIKISQGLGLQDFDLIRVIGRGSYAKVLLVRLKKNDQIYAMKVVKKELVHDDEDIDWVQTEKHVFEQASSNPFLVGLHSCFQTTSRLFLVIEYVNGGDLMFHMQRQRKLPEEHARFYAAEICIALNFLHERGIIYRDLKLDNVLLDADGHIKLTDYGMCKEGLGPGDTTSTFCGTPNYIAPEILRGEEYGFSVDWWALGVLMFEMMAGRSPFDIITDNPDMNTEDYLFQVILEKPIRIPRFLSVKASHVLKGFLNKDPKERLGCRPQTGFSDIKSHAFFRSIDWDLLEKKQALPPFQPQITDDYGLDNFDTQFTSEPVQLTPDDEDAIKRIDQSEFEGFEYINPLLLSTEESV
In the case of B2, the reversal of the PKCβI+PKCβII inhibition of ASIC1 activity in bilayers (PKCε and PKCζ in combination) in series [6] was 5 fold excess. Moreover, in series [7], the “effect on ASIC1 activity in bilayers” value is reported as “Neither PKCε, PKCζ, nor their combination had any effect”. Also, in series [8], the “ASIC1 activity in planar lipid bilayers” value is listed as “Neither PKCε, PKCζ, nor their combination had any effect on ASIC1 activity in bilayers”; the “in vitro phosphorylation of ASIC1” value is “PKC holoenzyme, PKCβI, PKCβII, PKCδ, PKCε, and PKCζ phosphorylated ASIC1 in vitro”.

Values taken from patent publication US20070092444A1, “Inhibition of inward sodium currents in cancer” (priority 2003, published 2007).
